Target: single chain trimer version of HLA-Cw6, normal length
Test: cell-cell conjugate formation by flow cytometry; PKH26-labelled NKL cells (or KIR2DL1-expressing NKL cells) mixed with equal numbers of PKH67-labelled P815 transfectants, 30 min, fixed with 1% paraformaldehyde; percentage of NKL cells forming conjugates

- percent of NKL cells forming conjugates: > 50%
Substance: KIR2DL1-CFP on NKL cells (from UniProt P43626 22-348) (receptor)
